The values below come from publication PMC4769559 (BMC Veterinary Research, 2016).

To fix the notation:
B1: 6 × His-SUMO-VHH6 fusion protein (VHH)
VHH: QVQLVESGGGSVQAGGSLRLSCTASGFTFDDSDMVWYRQAPGNECEVVSYITSDGTTYHADSVKGRFTISQDNAKSTVYLQMNSLKPEDTAVYYCAADLVLESPSCEWSQGTLVTVSS
B2: VHH1 fused to the Gal4 activation domain (pAD-VHH, pGADT7-Rec) (VHH)
VHH: QVQLVESGGGSVQAGGSLTLSCAASGATDSSSCMGWFRQAPGKEREGVANIDSDGNTNYAESVMGRFTISQDNAKNTLYLQMNTLKPEDTAMYRCAADPGGSWCVFLLARENALDAWGQGTLVTVSS
B3: VHH3 fused to the Gal4 activation domain (pAD-VHH, pGADT7-Rec) (VHH)
VHH: EVQLVESGGGSVQAGGSLRLSCTASGYTRCMGWFRQAPGKEREGVAIVVTGSPYYTDSVKDRFTISLDNAKNTVYLQMNSLKPEDTATYYCAADRSILGCRLFRLYEANYRGQGTLVTVSS
B4: VHH2 fused to the Gal4 activation domain (pAD-VHH, pGADT7-Rec) (VHH)
VHH: QVQLVESGGGSVQAGGSLKLSCAPPAGYIFSSCAMGWYRQAPGKEHELVSSIAINGTTVYADFVKGRFTIFQDNTKPTLYLQMNNLKTEDTAVYYCAAECTFSDHPYWGQGTLVTVSS
B5: VHH5 fused to the Gal4 activation domain (pAD-VHH, pGADT7-Rec) (VHH)
VHH: QVQLVESGGGLVQPGGSLKLSCAASGFTFSTNAMSWFRPAPGKERKWVSAIDAGGGNTYYDDSMKGRFTISKDNAKNTLYLQLNSLKSEDTAMYYCAKDPATVPTNRGQGTLVTVSS
B6: VHH6 fused to the Gal4 activation domain (pAD-VHH, pGADT7-Rec) (VHH)
VHH: QVQLVESGGGSVQAGGSLRLSCTASGFTFDDSDMVWYRQAPGNECEVVSYITSDGTTYHADSVKGRFTISQDNAKSTVYLQMNSLKPEDTAVYYCAADLVLESPSCEWSQGTLVTVSS
B7: VHH4 fused to the Gal4 activation domain (pAD-VHH, pGADT7-Rec) (VHH)
VHH: QVQLVESGGGSVQAGGPLRLSCAVSGYSYSSVCMAWFRQAPGKEREAVAGIYTGGGNKYYADSVKGRFTISQDNTKNTLYLQMNSLKPEDTAMYYCAADLTVAACVPGRPQLTEEYNIWGQGTLVTVSS
B8: VHH7 fused to the Gal4 activation domain (pAD-VHH, pGADT7-Rec) (VHH)
VHH: QVQLVESGGGLVQPGGSLRLSCAASGFAFSIYAMSWVRQAPGKGLEWVSAINSGGGSEYYADSVKGRFTISRDNAKNTLYLQLNSLKTEDTAMYYCAKSTSDCSYSDPWCYALADFGYWGQGTQVTVSS

One test has as its target cell derived HN protein (pCAGGS-HN transfected 293 T cells) (Newcastle disease virus, strain not …, UniProt O90340). Briefly: pull-down. Conditions: one partner purified.
For the molecule B1, the binding result is recorded as “binds”.

The next test deals with NDV HN glycoprotein in LaSota-infected DF-1 cells (Newcastle disease virus, La Sota, UniProt O90340, strain). Briefly: immunostaining of cells or tissue. Conditions: one partner purified.
With B1, the binding result was “binds”.

The target of a further test is truncate haemagglutinin-neuraminidase (HN) 49–577 aa of NDV La Sota fused to the yeast GAL4 DNA-BD (Newcastle disease virus, La Sota, UniProt O90340, strain). The test is described as follows: two-hybrid. The note with it: partners not purified.
As to B2, the binding result was “binds”.
Regarding B3, the binding result is listed as “binds”.
On the same count and under the same terms, then B4, with “binds”; and B5, with “binds”.
In the case of B6, the binding result is “binds”.
On the same count and under the same terms, for B7 the value was “binds”.
For the molecule B8, the binding result was “binds”.
